Here are results for 84 variants from the RNAGym collection of RNA variant scans (doi:10.1073/pnas.2313332121).

Sequences and labels used below:
B1: TPR 5TU (parent)
chain: GGAUCUUCUCGAUCUAACAAAAAAGACAAAUCUGCCACAAAGCUUGAGAGCAUCUUCGGAUGCAGAGGCGGCAGCCUUCGGUGGCGCGAUAGCGCCAACGUUCUCAACUAUGACACGCAAAACGCGUGCUCCGUUGAAUGGAGUUUAUCAUG

Variants at the floor of the assay were thinned out.

In the data set the parent is B1. Nature of the data set: polymerase ribozyme fitness, log enrichment relative to wild type (log ratio); higher = more active; in vitro selection for triplet polymerase activity. The essentials: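 One round of in vitro selection, in triplicate, was applied to PCR-built, transcribed mutant libraries of each subunit of a heterodimeric triplet polymerase ribozyme. The steps were annealing with a biotinylated primer, partner subunit and triplets, incubation frozen at −7 °C, gel excision of extended constructs, streptavidin-bead capture and RT-PCR. Fitness is the logarithm, base 2, of genotype enrichment over wild-type enrichment from inverse-variance-weighted replicate averages of Illumina-sequenced inputs and outputs, keeping genotypes with ≥10 input reads and ≥1 read per output.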
For G58C C69A, the “polymerase ribozyme fitness (log ratio)” value is -2.62.
The figure for G58U G81A A122G is -0.315; for G58C U61G U146G it is -3.76; for G59A G67A C108U it is at most -4.2.
The figure for G58U U82A G84U U146G is -2.04; for G58A C75U it is -1.82.
The figure for G59A U78C G88U C96U U109G G140C is at most -4.2; for G58C C63U U102G A106U G126A C132A it is at most -4.2.
As for G59C A60G C69U, the “polymerase ribozyme fitness (log ratio)” value is -2.47.
As for G59A C118G U130A C132G G140A, the “polymerase ribozyme fitness (log ratio)” value was at most -4.2.
The figure for G59C G126U is 0.134; for G59C G126A it is 0.0741.
The value for G58U G86A U130C was 0.803.
As for G58A C75U A91G C95G, the “polymerase ribozyme fitness (log ratio)” value was at most -4.2.
The value for G59A C76G C93G was at most -4.2; that for G58A C85G C118A G126C was -3.62.
With G58C A98U, the “polymerase ribozyme fitness (log ratio)” value was -0.459.
For G58C A97G A98U U145C, the “polymerase ribozyme fitness (log ratio)” value is -0.616.
With G58C G86C A89U, the “polymerase ribozyme fitness (log ratio)” value is -3.91.
On to G59A A60G, for which the “polymerase ribozyme fitness (log ratio)” value was -0.0653.
The value for G59A A60C was -1.48; that for G58A G86U A119U was -2.06; that for G58A A97U A107U was -4.18.
The value for G59C U82G C85A U102G was -4.09; that for G58C C79U C85G G141U was at most -4.2.
On to G58C U134G, for which the “polymerase ribozyme fitness (log ratio)” value was -3.93.
Consider G58A C103A, for which the “polymerase ribozyme fitness (log ratio)” value was -1.19.
The figure for G58C C63U A120C is -0.534; for G59A A110U it is -3.64; for G59A G92U C114A A119U it is -3.59.
For G59A C99A G140U, the “polymerase ribozyme fitness (log ratio)” value is -3.99.
Consider G58A C85G G100U U144A, for which the “polymerase ribozyme fitness (log ratio)” value is at most -4.2.
Turning to G58C U144C, the “polymerase ribozyme fitness (log ratio)” value worked out at 0.128.
On to G58C U139C, for which the “polymerase ribozyme fitness (log ratio)” value is -3.3.
G59A C87U A121U: the “polymerase ribozyme fitness (log ratio)” value is -0.901.
For G59C A89U C96G A107G, the “polymerase ribozyme fitness (log ratio)” value was at most -4.2.
Take G58C A64G G65A G71A C95U U101G: the “polymerase ribozyme fitness (log ratio)” value was at most -4.2.
As to G59A G92U U104C A121C, the “polymerase ribozyme fitness (log ratio)” value is -2.09.
The figure for G58U G128U is -3.02; for G59A C87U U101G G136C it is -2.91.
In the case of G58A C96A A97G A106C A119U, the “polymerase ribozyme fitness (log ratio)” value is -1.42.
For the variant G58A C63G G86U G94C A137C G141U U151C, the “polymerase ribozyme fitness (log ratio)” value is at most -4.2.
Take G59U A97C C99G: the “polymerase ribozyme fitness (log ratio)” value was -3.18.
Regarding G59U C69U C87G C105G C129A G141A, the “polymerase ribozyme fitness (log ratio)” value is at most -4.2.
As for G59C A110G, the “polymerase ribozyme fitness (log ratio)” value is -3.79.
The value for G58A U61A G88C G133U was at most -4.2.
As for G58C C63G C96G, the “polymerase ribozyme fitness (log ratio)” value was -0.61.
The value for G58A A142U was -0.199; that for G59C A60C U77A C85A G140A U144C was at most -4.2; that for G58U U135C was -1.62.
Regarding G58U G62U C99U C118U U134C, the “polymerase ribozyme fitness (log ratio)” value is at most -4.2.
As for G58A G80U G84A G88A, the “polymerase ribozyme fitness (log ratio)” value was at most -4.2.
G59C G94A U101G A113C: the “polymerase ribozyme fitness (log ratio)” value is at most -4.2.
Turning to G59A G74A, the “polymerase ribozyme fitness (log ratio)” value was -3.23.
As for G59U C85U A150U, the “polymerase ribozyme fitness (log ratio)” value stood at 1.1.
With G58C G83U, the “polymerase ribozyme fitness (log ratio)” value is -2.88.
With G59A C93A U135C U146A, the “polymerase ribozyme fitness (log ratio)” value is -3.8.
Turning to G58C G62C C95G, the “polymerase ribozyme fitness (log ratio)” value was -3.72.
On to G58C G83C G117C C131U, for which the “polymerase ribozyme fitness (log ratio)” value was -0.976.
With G59U A73G, the “polymerase ribozyme fitness (log ratio)” value is -0.629.
G59C G86A: the “polymerase ribozyme fitness (log ratio)” value was -2.61.
For G59C G86C C118A, the “polymerase ribozyme fitness (log ratio)” value is -2.85.
The figure for G58A G92A C123G is -4.01.
For G59C U101G, the “polymerase ribozyme fitness (log ratio)” value is -0.121.
For G59A G88U C116G, the “polymerase ribozyme fitness (log ratio)” value was -3.56.
With G58U U61G C63U G74C G141C, the “polymerase ribozyme fitness (log ratio)” value is at most -4.2.
The value for G59A U78G A91U U102G was at most -4.2; that for G59A G140C U144G was -3.79.
For the variant G58A A89U C96A A115G, the “polymerase ribozyme fitness (log ratio)” value is -1.15.
Regarding G59A G83U, the “polymerase ribozyme fitness (log ratio)” value was -1.06.
In the case of G59C G67A C85A G112U, the “polymerase ribozyme fitness (log ratio)” value is at most -4.2.
Take G59C C93A C95A: the “polymerase ribozyme fitness (log ratio)” value is -4.05.
As to G58C C72U A150U, the “polymerase ribozyme fitness (log ratio)” value came to 0.398.
For G58A G117U, the “polymerase ribozyme fitness (log ratio)” value is 1.04.
Regarding G58A G86A A110G A115C U151G, the “polymerase ribozyme fitness (log ratio)” value was at most -4.2.
On to G58A C72U C76A, for which the “polymerase ribozyme fitness (log ratio)” value is -1.3.
Turning to G59A C132G U139C, the “polymerase ribozyme fitness (log ratio)” value is -2.96.
With G58A C76A G80C C85U A89G U90C U101G C149A, the “polymerase ribozyme fitness (log ratio)” value was at most -4.2.
Regarding G58A A91C, the “polymerase ribozyme fitness (log ratio)” value is at most -4.2.
On to G59C C96U U146A, for which the “polymerase ribozyme fitness (log ratio)” value is 0.268.
Take G58C U82G C99G: the “polymerase ribozyme fitness (log ratio)” value is -1.45.
The figure for G59C G80A C93A is -3.86; for G58C U61A G74U U77G C79U G80C C87A it is at most -4.2.
Regarding G58A G100U, the “polymerase ribozyme fitness (log ratio)” value is -3.22.
